Experimental findings from patent publication US8143228B2, “Agents capable of downregulating an MSF-A dependent HIF-1α and use thereof in cancer treatment” (Medical Research Fund of Tel Aviv Sourasky Medical Center, priority 2004, dated 2012) are described below.

Entries after “also recorded” stand apart in the source; their conditions may differ.

Assay [1] relates to HIF-1α protein. The assay is described as follows: HIF-1α protein stability assays (cycloheximide treatment, pulse-chase) in PC-3 cells. It counts as cell-based. Particulars: PC-3-Neo cells, within 20 minutes, CHX 10 μg/ml, normalized to α-tubulin. As to the method: FIGS. 16a-c are Western blot analyses depicting the effect of cycloheximide (CHX) on the expression level of HIF-1α (FIG. 16a) and α-tubulin (FIG. 16b) in PC-3-Neo or PC-3-MSF-A cells grown under normoxia. CHX was added to PC-3-Neo (lanes 1-5) or PC-3-MSF-A (lanes 6-10) at a final concentration of 10 μg/ml, for 0 (lanes 1 and 6), 5 (lanes 2 and 7), 15 (lanes 3 and 8), 30 (lanes 4 and 9) and 45 (lanes 5 and 10) minutes. Whole cell extracts were prepared and resolved by SDS-PAGE and Western blotting was performed with antibodies against HIF-1α (FIG. 16a) or α-tubulin (FIG. 16b). FIG. 16c is a graph depicting quantitation of the results obtained in FIGS. 16a and b expressed as the ratio of HIF-1α expression level normalized to that of α-tubulin. Note, the relatively slow degradation of HIF-1α in cells over-expressing the MSF-A protein, with a degradation half-life of 40 minutes as compared to the degradation half-life of less than 20 minutes in PC-3-Neo cells (FIG. 16c).
FIGS. 17a-b depict pulse-chase analysis of HIF-1α. […] FIG. 17b-quantification of the autoradiographic HIF-1α signal by densitometry.
HIF-1α protein stability assays—Cells were plated into 6-well plates and grown to 70% confluence. […] Immunoprecipitates were analyzed on SDS-PAGE and visualized by autoradiography.

Assay [2] has as its system HIF-1α transcriptional activity. The assay is described as follows: HRE-dependent luciferase reporter gene assay in HEK 293 cells. It counts as cell-based. The conditions noted are these: transient transfection, hypoxia, compared with empty vector. As to the method:
FIG. 7 is a graph depicting luciferase activity (a reporter of HIF-1α transcriptional activation) as a function of the presence or absence of the N-terminus of the MSF-A protein. HEK 293 cells were co-transfected with 0.1 μg HRE-dependent luciferase reporter [pBI-GL V6L (Post, D. E., and Van Meir, E. G. 2001. Generation of bidirectional hypoxia/HIF-responsive expression vectors to target gene expression to hypoxic cells. Gene Ther 8, 1801-1807. Mabjeesh, N. J., et al., 2002, Geldanamycin induces degradation of hypoxia-inducible factor 1 alpha protein via the proteasome pathway in prostate cancer cells. Cancer Res 62, 2478-2482) and the wild type (WT) MSF-A (p3xFlag-MSF-A), ΔN-MSF-A (ΔN) (p3xFlag-ΔN-MSF-A) or empty vector (EV) (p3xFlag-cmv-25) constructs as follows: Experiment (Exp.) No. 1=1 μg EV; Exp. No. 2=0.5 μg EV and 0.5 μg WT; Exp. No. 3-1 μg WT; Exp. No. 4=0.5 μg EV and 0.5 μg ΔN; Exp. No. 5=1 μg ΔN. After 24 hours of transfection, cells were subjected to normoxia or hypoxia for overnight and then analyzed for luciferase luminescence assay. Luciferase activity is presented as relative units per μg protein in each experiment. Columns represent means; bars represent SD; n=3; *, p<0.05 compared to hypoxia of EV. Note the significant decrease of luciferase activity in cells grown under hypoxia and transfected with the N-terminus truncated form (ΔN) of MSF-A as compared with cells transfected with the wild-type form of MSF-A. Also note that under normoxia, when the luciferase activity is hardly detected, no significant difference is obtained.
FIG. 8 is a graph depicting luciferase activity (a reporter of HIF-1α transcriptional activation) as a function of the presence or absence of the GTP binding site of MSF-A (ΔG). HEK 293 cells were cotransfected with HRE-dependent luciferase reporter and the expression vector encoding wild-type MSF-A (WT) (p3xFlag-MSF-A), the deleted GTP binding site form of MSF-A (ΔG) (p3xFlag-ΔG-MSF-A) or empty vector (EV) (p3xFlag-cmv-25) and then were exposed to hypoxia conditions as described in the description of FIG. 4, hereinabove. Luciferase activity is presented as relative units per μg protein in each experiment. Columns represent means; bars represent SD; n=3. Note the non-significant effect of the ΔG-MSF-A on HIF-1α activity.
Reporter gene assay and luminescence measurements—HRE-dependent luciferase activity was performed using the pBI-GL construct (pBI-GL V6L) containing six tandem copies of the VEGF hypoxia response element as previously described (Mabjeesh et al., 2002; Post and Van Meir, 2001). […] Luciferase enzymatic activity was measured using the commercial kit TROPIX (Bedford, Mass.) in the Galaxy luminometer (BMG Labtechnologies LUMIstar) following the manufacturer's instructions. […]
Background: Reporter assays use an easily measured gene product as a stand-in for the process of interest.

Assay [3] concerns the target T1, HIF-1α protein (Homo sapiens, UniProt Q16665).
T1 construct: expressed in transfected cells; host or cells: HEK 293
The assay is described as follows: Co-immunoprecipitation / immunoblotting with HIF-1α in transfected HEK 293 cells. Type of assay: binding. The conditions noted are these: transient transfection. How it is done: FIGS. 9a-c are Western blot analyses of FLAG (MSF-A; FIGS. 9a and b) and HIF-1α (FIG. 9c) depicting the interaction between HIF-1α and the WT or deleted forms of MSF-A. HEK 293 cells were transiently co-transfected with expression vector encoding Flag-MSF-A (WT; p3xFlag-MSF-A), Flag-ΔG (AG; p3xFlag-ΔG-MSF-A), Flag-ΔN (ΔN; p3xFlag-ΔN-MSF-A) or empty vector (EV; p3xFlag-cmv-25). After 48 hours, the cells were lysed, subjected for immunoprecipitation (IP) using HIF-1α antibody and then immunoblotted (IB) with HIF-1α or Flag antibodies. FIG. 9a—whole cell extracts (WCE) subjected to IB with the Flag antibody (MSF-A); FIG. 9b—IP prepared by the HIF-1α antibody were subjected to IB with the Flag antibody (MSF-A); FIG. 9c—IP prepared by the HIF-1α antibody were subjected to IB with the HIF-1α antibody.
Immunoblotting—Proteins (30-60 μg/lane) from WCEs were resolved by 7.5% SDS-PAGE, electro-blotted to nitrocellulose membranes and incubated with the indicated primary antibodies, followed by horseradish peroxidase-conjugated secondary antiserum (Amersham Biosciences, Piscataway, N.J.). Immunoreactivity was visualized by Amersham enhanced chemiluminescence reagent (Amersham Biosciences, Piscataway, N.J.). For sequential blotting with additional antibodies, the membranes were stripped from the first primary antibody using a restore Western blot stripping buffer (Pierce, Rockford, Ill.) and were re-probed using the second primary antibody as indicated.
Immunoprecipitation—Cells were washed twice with ice-cold PBS, lysed in 20 mM Na-HEPES, pH 7.5, 0.5% Nonidet P-40, 0.1M NaCl, 2 mM EDTA, 10% Glycerol and 2 mM DTT supplemented with protease and phosphatase inhibitors, and were subjected to immunoprecipitation using anti-HIF-1α antibody and protein G-agarose beads (Pierce, Ill.) according to the manufacturer's instructions.
To confirm the interaction between the HIF-1α and the MSF-A proteins, HEK 293 cells were transiently co-transfected with the p3xFlag-MSF-A and the pcDNA3.1-HIF-1α vectors, and were grown for 24 hours under normoxic conditions (i.e., conditions of 20% oxygen), following which whole cell extracts (WCE) were subjected to co-immunoprecipitation (IP) using anti-FLAG or anti-HIF-1α antibodies. Following IP, the proteins were subjected to SDS-PAGE and immunoblotting (IB) using the counterpart antibody. As is shown in FIGS. 3a-d, following transfection with both expression vectors (i.e., pcDNA3.1-HIF-1α and p3xFlag-MSF-A) immunoprecipitates generated using either the anti-HIF-1α antibody or the anti-Flag antibody included the reciprocal proteins, i.e., the Flag-MSF-A or HIF-1α proteins, respectively.
In general terms: Immunoblotting shows a protein as a band on a membrane.

T1 sequence (Q16665 whole entry): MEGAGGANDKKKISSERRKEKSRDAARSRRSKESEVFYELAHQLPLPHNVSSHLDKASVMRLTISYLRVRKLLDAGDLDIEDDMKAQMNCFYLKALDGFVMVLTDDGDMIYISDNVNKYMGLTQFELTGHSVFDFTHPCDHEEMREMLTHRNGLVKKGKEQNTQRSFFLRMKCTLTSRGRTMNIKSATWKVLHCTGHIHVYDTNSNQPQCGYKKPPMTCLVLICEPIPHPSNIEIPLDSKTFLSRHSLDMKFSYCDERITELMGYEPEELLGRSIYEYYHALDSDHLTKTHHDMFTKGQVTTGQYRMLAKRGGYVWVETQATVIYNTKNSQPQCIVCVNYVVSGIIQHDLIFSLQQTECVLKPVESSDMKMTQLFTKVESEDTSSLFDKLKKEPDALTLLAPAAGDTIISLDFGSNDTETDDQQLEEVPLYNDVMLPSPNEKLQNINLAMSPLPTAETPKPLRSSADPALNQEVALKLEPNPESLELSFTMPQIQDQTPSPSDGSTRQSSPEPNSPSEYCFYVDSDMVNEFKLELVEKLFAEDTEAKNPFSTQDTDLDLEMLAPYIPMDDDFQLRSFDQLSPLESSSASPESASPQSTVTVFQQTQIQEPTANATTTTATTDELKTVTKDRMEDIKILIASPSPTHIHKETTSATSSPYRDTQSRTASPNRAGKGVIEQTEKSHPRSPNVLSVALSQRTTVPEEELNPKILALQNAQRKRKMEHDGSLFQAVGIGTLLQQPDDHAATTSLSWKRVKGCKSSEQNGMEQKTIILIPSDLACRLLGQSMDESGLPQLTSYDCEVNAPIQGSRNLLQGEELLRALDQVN

`C[C@@H]1C[C@@H]([C@H](O)CC2CC(=O)NC(=O)C2)C(=O)[C@@H](C)C1` [CHX, cycloheximide]: in the assay on HIF-1α protein [1], the “HIF-1α protein levels after exposure to CHX” value was “about 50%”.

B1: ΔG-MSF-A: MSF-A mutant lacking the GTP binding domain, deletion of amino acids 305-312 GQSGLGKS (SEQ ID NO:4215) (protein, listed as Homo sapiens)
chain: MKKSYSGGTRTSSGRLRRLGDSSGPALKRSFEVEEVETPNSTPPRRVQTPLLRATVASSTQKFQDLGVKNSEPSARHVDSLSQRSPKASLRRVELSGPKAAEPVSRRTELSIDISSKQVENAGAIGPSRFGLKRAEVLGHKTPEPAPRRTEITIVKPQESAHRRMEPPASKVPEVPTAPATDAAPKRVEIQMPKPAEAPTAPSPAQTLENSEPAPVSQLQSRLEPKPQPPVAEATPRSQEATEAAPSCVGDMADTPRDAGLKQAPASRNEKAPVDFGYVGIDSILEQMRRKAMKQGFEFNIMVVTLINTLFKSKISRKSVQPTSEERIPKTIEIKSITHDIEEKGVRMKLTVIDTPGFGDHINNENCWQPIMKFINDQYEKYLQEEVNINRKKRIPDTRVHCCLYFIPATGHSLRPLDIEFMKRLSKVVNIVPVIAKADTLTLEERVHFKQRITADLLSNGIDVYPQKEFDEDSEDRLVNEKFREMIPFAVVGSDHEYQVNGKRILGRKTKWGTIEVENTTHCEFAYLRDLLIRTHMQNIKDITSSIHFEAYRVKRLNEGSSAMANGVEEKEPEAPEM
modifications: 3xFlag tag
Consider B1, for which the “HIF-1α transcriptional activity (luciferase reporter)” value in assay [2] is on record as “no significant effect”; in assay [2] (listed as ΔG-MSF), “lack of activation”. Further, the “association with HIF-1α protein (co-immunoprecipitation)” value with HIF-1α protein [3] is listed as “capable of binding”; in the assay with HIF-1α protein [3] (listed as ΔG-MSF), “co-immunoprecipitated”.

B2: ΔN-MSF-A: N-terminal truncated MSF-A, deletion of the first 25 amino acids (SEQ ID NO:10, encoded by SEQ ID NO:7) (protein, listed as Homo sapiens)
chain: ALKRSFEVEEVETPNSTPPRRVQTPLLRATVASSTQKFQDLGVKNSEPSARHVDSLSQRSPKASLRRVELSGPKAAEPVSRRTELSIDISSKQVENAGAIGPSRFGLKRAEVLGHKTPEPAPRRTEITIVKPQESAHRRMEPPASKVPEVPTAPATDAAPKRVEIQMPKPAEAPTAPSPAQTLENSEPAPVSQLQSRLEPKPQPPVAEATPRSQEATEAAPSCVGDMADTPRDAGLKQAPASRNEKAPVDFGYVGIDSILEQMRRKAMKQGFEFNIMVVGQSGLGKSTLINTLFKSKISRKSVQPTSEERIPKTIEIKSITHDIEEKGVRMKLTVIDTPGFGDHINNENCWQPIMKFINDQYEKYLQEEVNINRKKRIPDTRVHCCLYFIPATGHSLRPLDIEFMKRLSKVVNIVPVIAKADTLTLEERVHFKQRITADLLSNGIDVYPQKEFDEDSEDRLVNEKFREMIPFAVVGSDHEYQVNGKRILGRKTKWGTIEVENTTHCEFAYLRDLLIRTHMQNIKDITSSIHFEAYRVKRLNEGSSAMANGVEEKEPEAPEM
modifications: 3xFlag tag
With B2, the “HIF-1α transcriptional activity (luciferase reporter)” value in assay [2] is reported as “dose-dependent inhibition; also recorded: inhibition of HIF-1α activation below the level observed in cells transfected with the empty vector”. Moreover, the results for the “association with HIF-1α protein (co-immunoprecipitation)” value with HIF-1α protein [3], with HIF-1α protein [3] (listed as N-terminal truncated form of MSF-A) and with HIF-1α protein [3] (listed as ΔN-MSF) were “capable of binding”, “unable to form a protein complex” and “co-immunoprecipitated”, respectively.
